± gives the uncertainty stated by the source.
Experiment: self-splicing fitness, log relative to wild type (ln ratio); higher = more splicing; Tetrahymena group I intron in knt gene, E. coli kanamycin selection, DiMSum; sequences stand for … in CUCUCU…GGAGGGAAAAGUUAUCAGGCAUGCACCUGGUAGCUAGUCUUUAAACCAAUAGAUUGCAUCGGUUUAAAAGGCAAGACCGUCAAAUUGCGGGAAAGGGGUCAACAGCCGUUCAGUACCAAGUCUCAGGGGAAACUUUGAGAUGGCCUUGCAAAGGGUAUGGUAAUAAGCUGACGGACAUGGUCCUAACCACGCAGCCAAGUCCUAAGUCAACAGAUCUUCUGUUGAUAUGGAUGCAGUUCACAGACUAAAUGUCGGUCGGGGAAGAUGUAUUCUUCUCAUAAGAUAUAGUCGGACCUCUCCUUAAUGGGAGCUAGCGGAUGAAGUGAUGCAACACUGGAGCCGCUGGGAACUAAUUUGUAUGCGAAAGUAUAUUGAUUAGUUUUGGAGUACUCGUGGUCG
In short: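 Six replicate transformations of E. coli BL21(DE3) with a pET-22b(+) library were grown overnight at 37°C or 30°C. The library randomised all eight P1ex-region intron nucleotides, the intron lying in the knt kanamycin-resistance gene, and plates were LB agar with or without 25 μg/mL kanamycin plus 100 μg/mL carbenicillin, 50 μM IPTG and 0.2% rhamnose. Pooled colonies were amplicon-sequenced on an Illumina HiSeq 2500, and fitness is the DiMSum error-weighted combination of wild-type-normalised replicate fold changes, kanamycin versus none.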

Sequence | self-splicing fitness (ln) (30 °C) | self-splicing fitness (ln) (37 °C)
UUGCAGCAAUAUUACGAGCG | -1.14 ± 0.15 | -0.665 ± 0.15
UUGCAGCAAUAUUACGCCAG | -0.879 ± 0.13 | 0.0127 ± 0.2
UUGCAGCAAUAUUACGCCGA | -0.318 ± 0.11 | -0.371 ± 0.12
UUGCAGCAAUAUUACGCCGU | -3.46 ± 0.36 | -1.41 ± 0.3
UUGCAGCAAUAUUACGGCAU | -2.44 ± 0.19 | -1.19 ± 0.1
UUGCAGCAAUAUUACGGCGA | -1.53 ± 0.12 | -0.929 ± 0.14
UUGCAGCAAUAUUACGGGCA | -1.31 ± 0.13 | -0.764 ± 0.14
UUGCAGCAAUAUUACGGGGG | -2.4 ± 0.17 | -2.23 ± 0.24
UUGCAGCAAUAUUACGGGGU | -4.28 ± 0.2 | -2.51 ± 0.18
UUGCAGCAAUAUUACGGUCG | -0.4 ± 0.089 | 0.21 ± 0.12
UUGCAGCAAUAUUACGGUUC | -4.6 ± 0.27 | -1.67 ± 0.18
UUGCAGCAAUAUUACGUGCU | -3.19 ± 0.22 | -1.84 ± 0.22
UUGCAGCAAUAUUACGUGUC | -3.3 ± 0.17 | -3.15 ± 0.24
UUGGAGCAAUAUUACGAAUC |  | -2.58 ± 0.5
UUGGAGCAAUAUUACGAUCG | -2.53 ± 0.24 | -1.66 ± 0.2
UUGGAGCAAUAUUACGCGUA | -3.77 ± 0.28 | -2.13 ± 0.23
UUGGAGCAAUAUUACGCUGU | -3.36 ± 0.41 | -2.35 ± 0.37
UUGGAGCAAUAUUACGGAAG | -3.3 ± 0.44 | 
UUGGAGCAAUAUUACGGACU | -3.18 ± 0.34 | -2.65 ± 0.35
UUGGAGCAAUAUUACGGUAU | -2.95 ± 0.26 | -1.98 ± 0.28

Sequence | self-splicing fitness (ln) (30 °C) | self-splicing fitness (ln) (37 °C)
UUGGAGCAAUAUUACGUACC | -3.52 ± 0.43 | -2.01 ± 0.44
UUGGAGCAAUAUUACGUCCU | -2.05 ± 0.2 | -0.535 ± 0.17
UUGGAGCAAUAUUACGUGGC | -3.14 ± 0.24 | -0.804 ± 0.25
UUGGAGCAAUAUUACGUUAG | -3.62 ± 0.2 | -1.49 ± 0.22
UUGGAGCAAUAUUACGUUUU | -1.64 ± 0.19 | -2.55 ± 0.18
UUGUAGCAAUAUUACGACCU | -1.39 ± 0.15 | -0.134 ± 0.16
UUGUAGCAAUAUUACGACUA | -0.429 ± 0.13 | -0.0263 ± 0.16
UUGUAGCAAUAUUACGACUG | -0.0934 ± 0.12 | -0.0721 ± 0.14
UUGUAGCAAUAUUACGAUAC | -1.91 ± 0.22 | 
UUGUAGCAAUAUUACGCAUG | -1.86 ± 0.13 | 0.0958 ± 0.14
UUGUAGCAAUAUUACGCAUU | -2.84 ± 0.43 | -2.26 ± 0.32
UUGUAGCAAUAUUACGCCCG | -0.143 ± 0.22 | -0.0661 ± 0.23
UUGUAGCAAUAUUACGCCCU | -0.23 ± 0.24 | -0.0821 ± 0.2
UUGUAGCAAUAUUACGCGAC |  | -0.429 ± 0.37
UUGUAGCAAUAUUACGCGGA | -1.43 ± 0.13 | -0.3 ± 0.11
UUGUAGCAAUAUUACGCUAA | -0.865 ± 0.17 | -0.386 ± 0.19
UUGUAGCAAUAUUACGGAAU | -1.94 ± 0.15 | -3.26 ± 0.32
UUGUAGCAAUAUUACGGAGU |  | -2.5 ± 0.36
UUGUAGCAAUAUUACGGAUG | -1.9 ± 0.12 | -1.56 ± 0.15

Reference: the supplement of paper PMC7877785
